Read-outs that look alike come from different tables or passages of the source. Square brackets hold non-standard residues; d marks the D form. Ends that are not written are not given here.
Molecular target: tetrameric transthyretin (TTR) (Homo sapiens, UniProt P02766)
Assay: In-solution kinetics analysis of TTR-Aβ interactions via OpenSPR
Type: binding
Settings: for koff: dissociation rate constant
Experimental: One of the most common applications of SPR is the analysis and quantification of the interactions between proteins. SPR experiments were performed using a Nicoya Lifesciences OpenSPR system equipped with a COOH chip. Following the start-up procedure found in the OpenSPR™ manual, setup the OpenSPR™ instrument and load a COOH Sensor Chip. The COOH surface was activated following the instructions included in the Amine kit. The ligand was diluted to a concentration of 45 μg/mL into immobilization buffer (provided by Nicoya Lifesciences, pH 4.5) and 100 μL was injected at 20 μL/min for a 5-min interaction time. […] Immobilization was monitored via absorbance change in a standard solution of filtered buffer (PBS, pH 6.8, with 0.005% Tween 20) for 5 min at a flow rate of 50 μl/min. The surface was blocked with an injection of 100 μL of blocking buffer (provided by Nicoya Lifesciences, 1 M ethanolamine, pH 8.5). […] An association time of 150 s and a dislocation time of 400 s were used. The surface was regenerated with an injection of regeneration buffer (HCl 10 mM, pH 2.0) at a speed of 150 μL/min between each analyte injection. The chip was washed in 10 mM HCl (pH 2.0) to remove impurities. Data were collected at a rate of 5 Hz and was single referenced with blank injections. Data were fit to a 1:1 interaction model using the analysis software TraceDrawer.

[1] = OpenSPR, Replicate #1, read-out: ka
[2] = OpenSPR, Replicate #2, read-out: ka
[3] = OpenSPR, Replicate #3, read-out: ka
[4] = pH 6.8, OpenSPR, association rate constant, immobilized TTR, PBS pH 6.8, 0.005% Tween 20, 1:1 model, average of three ± SD, read-out: Ka (1/(M*s)) × 10^−2
[5] = OpenSPR, association rate constant, immobilized TTR, PBS pH 6.8, 0.005% Tween 20, 1:1 model, average of three ± SD
[6] = OpenSPR, immobilized TTR, PBS pH 6.8, 0.005% Tween 20, 1:1 model, average of three ± SD

Row | Molecule | kon [1] [M⁻¹ s⁻¹] | kon [2] [M⁻¹ s⁻¹] | kon [3] [M⁻¹ s⁻¹] | kon [4] [M⁻¹ s⁻¹] | binding dissociation rate constant higher than the WT Aβ (17–36) fragment (OpenSPR, tetrameric TTR, relative to WT Aβ (17–36)) | Kd (OpenSPR, Replicate #1) [µM] | ka (OpenSPR, Replicate #1) [M⁻¹ s⁻¹] | kd (OpenSPR, Replicate #1) [s⁻¹] | Kd (OpenSPR, Replicate #2) [µM] | ka (OpenSPR, Replicate #2) [M⁻¹ s⁻¹] | kd (OpenSPR, Replicate #2) [s⁻¹] | Kd (OpenSPR, Replicate #3) [µM] | ka (OpenSPR, Replicate #3) [M⁻¹ s⁻¹] | kd (OpenSPR, Replicate #3) [s⁻¹] | Ka (1/(M*s)) × 10^−2 [5] | koff [6]
1 | CC[C@H](C)[C@H](NC(=O)[C@H](C)NC(=O)CNC(=O)[C@H](CCCCN)NC(=O)[C@H](CC(N)=O)NC(=O)[C@H](CO)NC(=O)CNC(=O)[C@@H](NC(=O)[C@H](CC(=O)O)NC(=O)[C@H](CCC(=O)O)NC(=O)[C@H](C)NC(=O)[C@H](Cc1ccccc1)NC(=O)[C@H](Cc1ccccc1)NC(=O)[C@@H](NC(=O)[C@@H](N)CC(C)C)C(C)C)C(C)C)C(=O)N[C@H](C(=O)NCC(=O)N[C@@H](CC(C)C)C(=O)N[C@@H](CCSC)C(=O)N[C@H](C(=O)O)C(C)C)[C@@H](C)CC [WT Aβ (17–36)] | 886 | 586 | 603 | 690 ± 80 | – | – | – | – | – | – | – | – | – | – | – | –
2 | CC[C@H](C)[C@H](NC(=O)[C@H](C)NC(=O)CNC(=O)[C@H](CCCCN)NC(=O)[C@H](CC(N)=O)NC(=O)[C@@H](CO)NC(=O)CNC(=O)[C@@H](NC(=O)[C@@H](CC(=O)O)NC(=O)[C@H](CCC(=O)O)NC(=O)[C@H](C)NC(=O)[C@H](Cc1ccccc1)NC(=O)[C@H](Cc1ccccc1)NC(=O)[C@@H](NC(=O)[C@@H](N)CC(C)C)C(C)C)C(C)C)C(=O)N[C@H](C(=O)NCC(=O)N[C@@H](CC(C)C)C(=O)N[C@@H](CCSC)C(=O)N[C@H](C(=O)O)C(C)C)[C@@H](C)CC [dDdS Aβ (17–36)] | 3490 | 818 | 1470 | 1930 ± 700 | ~ 13 folds | – | – | – | – | – | – | – | – | – | – | –
3 | dD Aβ (17–36): Aβ (17–36) with D-isomerized Asp (LVFFAE[dD]VGSNKGAIIGLMV) | – | – | – | – | – | 116 | 1720 | 0.199 | 199 | 489 | 0.0975 | 133 | 753 | 0.1 | 9.9 ± 3.2 1/(M*s) × 10^−2 | 13.2 ± 2.9 1/s × 10^2
4 | dS Aβ (17–36): Aβ (17–36) with D-isomerized Ser (LVFFAEDVG[dS]NKGAIIGLMV) | – | – | – | – | – | 86.9 | 1660 | 0.144 | 220 | 657 | 0.144 | 47.3 | 1150 | 0.0546 | 11.6 ± 2.5 1/(M*s) × 10^−2 | 11.4 ± 2.6 1/s × 10^2

From paper PMC6834639 (Nature Communications, 2019)
